Assay [1] addresses human αEβ7 integrin expressed on cells (human) (UniProt P38570). The assay can be described thus: staining of K562 αEβ7 cells, 5 µg/ml; Ca^2+, Mg^2+ and Mn^2+ (1 mM each).
Assay [2] has the same target. The assay can be described thus: staining of K562 αEβ7 cells, 2.5 µg/ml; Ca^2+ and Mg^2+ (1 mM each).
For assay [3] the target is unchanged. As to the kind of experiment: staining of K562 αEβ7 cells, 10 µg/ml; Ca^2+ and Mg^2+ (1 mM each).
In assay [4] the target is E-cadherin-IgG fusion protein (human) (UniProt P12830). As to the kind of experiment: cell adhesion assay; buffer with Ca^2+, Mg^2+ and Mn^2+ (1 mM each).
The target is the same in assay [5]. As to the kind of experiment: cell adhesion assay; buffer with Ca^2+ and Mg^2+ (1 mM each).
The target is the same in assay [6]. As to the kind of experiment: cell adhesion assay; buffer with EDTA (5 mM).

Sequence of human αEβ7 integrin expressed on cells (human) (P38570 other isoform, or with tags, fused parts or gaps limits assumed, chain 1 of 2): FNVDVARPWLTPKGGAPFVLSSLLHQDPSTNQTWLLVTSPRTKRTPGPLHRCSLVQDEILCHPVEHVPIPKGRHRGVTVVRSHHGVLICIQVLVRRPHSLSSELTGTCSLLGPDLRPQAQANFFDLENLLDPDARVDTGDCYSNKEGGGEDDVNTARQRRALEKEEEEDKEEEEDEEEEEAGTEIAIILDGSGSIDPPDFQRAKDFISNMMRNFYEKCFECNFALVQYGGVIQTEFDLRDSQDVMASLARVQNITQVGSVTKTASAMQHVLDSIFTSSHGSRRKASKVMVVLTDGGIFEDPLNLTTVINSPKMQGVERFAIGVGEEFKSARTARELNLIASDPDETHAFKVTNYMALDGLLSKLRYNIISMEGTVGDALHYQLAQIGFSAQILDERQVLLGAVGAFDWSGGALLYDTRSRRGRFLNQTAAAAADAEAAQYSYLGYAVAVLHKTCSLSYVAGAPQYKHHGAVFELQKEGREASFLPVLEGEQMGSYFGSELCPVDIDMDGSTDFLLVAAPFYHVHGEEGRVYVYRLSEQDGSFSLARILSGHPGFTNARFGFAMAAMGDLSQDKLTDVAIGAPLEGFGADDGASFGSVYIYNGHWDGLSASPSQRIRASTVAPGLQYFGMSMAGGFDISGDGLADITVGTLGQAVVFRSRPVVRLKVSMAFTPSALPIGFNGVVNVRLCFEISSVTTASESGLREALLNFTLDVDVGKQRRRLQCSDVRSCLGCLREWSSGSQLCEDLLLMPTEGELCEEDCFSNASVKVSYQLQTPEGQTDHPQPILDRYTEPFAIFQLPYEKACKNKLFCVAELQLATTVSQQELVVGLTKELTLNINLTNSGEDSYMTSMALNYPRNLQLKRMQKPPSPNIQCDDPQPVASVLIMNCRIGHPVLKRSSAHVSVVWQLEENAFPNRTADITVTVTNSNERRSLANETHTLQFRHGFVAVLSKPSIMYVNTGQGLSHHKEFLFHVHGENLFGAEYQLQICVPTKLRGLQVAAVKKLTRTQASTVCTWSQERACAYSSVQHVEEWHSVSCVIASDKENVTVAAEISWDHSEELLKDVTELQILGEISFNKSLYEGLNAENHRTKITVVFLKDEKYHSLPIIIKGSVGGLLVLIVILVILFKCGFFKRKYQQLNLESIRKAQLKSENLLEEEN
Sequence of human αEβ7 integrin expressed on cells (human) (chain, as listed by the source limits assumed, chain 2 of 2): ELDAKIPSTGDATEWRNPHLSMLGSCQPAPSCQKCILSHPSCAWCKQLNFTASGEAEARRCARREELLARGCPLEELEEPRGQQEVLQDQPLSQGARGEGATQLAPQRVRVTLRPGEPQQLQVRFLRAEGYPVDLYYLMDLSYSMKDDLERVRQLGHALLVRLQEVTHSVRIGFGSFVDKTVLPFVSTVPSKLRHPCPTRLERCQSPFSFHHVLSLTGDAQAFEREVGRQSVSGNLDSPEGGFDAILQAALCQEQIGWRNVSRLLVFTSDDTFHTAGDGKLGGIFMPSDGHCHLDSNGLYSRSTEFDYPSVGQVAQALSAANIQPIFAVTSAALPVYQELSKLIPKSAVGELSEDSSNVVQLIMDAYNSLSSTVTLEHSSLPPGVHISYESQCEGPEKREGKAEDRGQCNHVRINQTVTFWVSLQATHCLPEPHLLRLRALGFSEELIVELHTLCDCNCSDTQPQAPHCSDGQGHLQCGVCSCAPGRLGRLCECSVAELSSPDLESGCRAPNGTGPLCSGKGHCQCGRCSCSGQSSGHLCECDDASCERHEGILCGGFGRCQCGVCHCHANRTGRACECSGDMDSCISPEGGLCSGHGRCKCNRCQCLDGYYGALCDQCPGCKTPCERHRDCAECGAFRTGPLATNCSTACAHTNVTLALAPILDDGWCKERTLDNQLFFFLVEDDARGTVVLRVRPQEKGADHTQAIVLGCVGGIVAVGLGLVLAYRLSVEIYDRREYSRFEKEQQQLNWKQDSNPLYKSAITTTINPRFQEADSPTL

For the substance “E-cadherin-IgG fusion protein (from UniProt P12830 155-699) (Fc fusion)”, the figures for the Binding (mean fluorescence intensity) in assay [1], in assay [2] and in assay [3] were 100 MFI, below 25 MFI and 75 MFI, respectively.
Consider “human αEβ7 integrin expressed on cells (from UniProt P38570 19-1179; P26010 20-798) (receptor)”, for which the % cells bound to immobilized E-cadherin in assay [4] is 60%; in assay [5], 40%; in assay [6], below 10%.
